This series deals with Escherichia coli TOP10. Nature of the series: shrunken log2 fold change of peptide-encoding DNA abundance (4.5 h post-induction vs induction); higher = less antimicrobial activity (less host growth inhibition). Conditions: time post-induction: 4.5 h; library: site-saturation at positions 5, 18, 19, 20.
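Also: peptides expressed intracellularly from a pBAD plasmid library in pooled LB shake-flask culture, induced with 0.3% L-arabinose, DNA abundance read by NGS, three biological replicates, DESeq2 with apeglm shrinkage.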

Take RRIRCRPPRLPRPRPRPYYNPRP: the “shrunken log2 fold change” value is -1.2. With RRIRHRPPRLPRPRPRPHVAPRP, the “shrunken log2 fold change” value was -0.208. With RRIRRRPPRLPRPRPRPWEIPRP the figure was -0.0233; with RRIRCRPPRLPRPRPRPDWRPRP, 0.243; with RRIRCRPPRLPRPRPRPEPYPRP, -0.364. Regarding RRIRDRPPRLPRPRPRPNMNPRP, the “shrunken log2 fold change” value is -0.41. With RRIRNRPPRLPRPRPRPCEEPRP the figure was -0.0104; with RRIRYRPPRLPRPRPRPFVEPRP, -1.17; with RRIRCRPPRLPRPRPRPDPMPRP, 0.00263.

As for RRIRLRPPRLPRPRPRPHQDPRP, the “shrunken log2 fold change” value was -0.308. With RRIRTRPPRLPRPRPRPDGWPRP the figure was 0.468. With RRIRYRPPRLPRPRPRPRFVPRP the figure was -1.02. With RRIRTRPPRLPRPRPRPRPPPRP the figure was 0.745; with RRIRVRPPRLPRPRPRPHRCPRP, 0.0572; with RRIRWRPPRLPRPRPRPAFYPRP, 0.371. As to RRIRLRPPRLPRPRPRPWIAPRP, the “shrunken log2 fold change” value was 0.0439. With RRIRPRPPRLPRPRPRPPADPRP the figure was 0.593. As to RRIRMRPPRLPRPRPRPYHWPRP, the “shrunken log2 fold change” value is -0.101. With RRIRMRPPRLPRPRPRPHCIPRP the figure was -0.0281. With RRIRARPPRLPRPRPRPTKKPRP the figure was 0.0778; with RRIRLRPPRLPRPRPRPYMYPRP, -0.759; with RRIRYRPPRLPRPRPRPWITPRP, -0.0192. Take RRIRCRPPRLPRPRPRPENGPRP: the “shrunken log2 fold change” value is -0.0135.

RRIRRRPPRLPRPRPRPATSPRP: the “shrunken log2 fold change” value came out at 0.0892. On to RRIRHRPPRLPRPRPRPYNLPRP, for which the “shrunken log2 fold change” value was -0.302. With RRIRVRPPRLPRPRPRPPLLPRP the figure was 0.287; with RRIRIRPPRLPRPRPRPQGRPRP, -0.25. With RRIRDRPPRLPRPRPRPLVPPRP, the “shrunken log2 fold change” value turned out to be 0.249.

As to RRIRFRPPRLPRPRPRPFIAPRP, the “shrunken log2 fold change” value was -0.489.

With RRIRQRPPRLPRPRPRPLFSPRP, the “shrunken log2 fold change” value is -0.258. Regarding RRIRRRPPRLPRPRPRPIKDPRP, the “shrunken log2 fold change” value is -0.0902.

As to RRIRKRPPRLPRPRPRPGWNPRP, the “shrunken log2 fold change” value is 0.106.

On to RRIRDRPPRLPRPRPRPMDNPRP, for which the “shrunken log2 fold change” value was -0.0115.

As for RRIRNRPPRLPRPRPRPTELPRP, the “shrunken log2 fold change” value is -0.0232. With RRIRKRPPRLPRPRPRPHVPPRP the figure was 0.207. With RRIRHRPPRLPRPRPRPIWVPRP the figure was 0.0163; with RRIRVRPPRLPRPRPRPRSCPRP, 0.0646; with RRIRFRPPRLPRPRPRPNLFPRP, -0.0917. With RRIRIRPPRLPRPRPRPVMAPRP, the “shrunken log2 fold change” value was -0.526. With RRIRIRPPRLPRPRPRPEQCPRP the figure was -0.122; with RRIRHRPPRLPRPRPRPKNCPRP, 0.00397. Consider RRIRTRPPRLPRPRPRPAQLPRP, for which the “shrunken log2 fold change” value is -0.216. With RRIRKRPPRLPRPRPRPEVFPRP the figure was 0.403.

RRIRHRPPRLPRPRPRPCKFPRP: the “shrunken log2 fold change” value was 0.0809. With RRIRIRPPRLPRPRPRPHCEPRP the figure was -1.54.

RRIRQRPPRLPRPRPRPSRGPRP: the “shrunken log2 fold change” value was 0.269. For the sequence RRIRCRPPRLPRPRPRPQFDPRP, the “shrunken log2 fold change” value is -0.211. With RRIRVRPPRLPRPRPRPHCEPRP the figure was -0.0141; with RRIRNRPPRLPRPRPRPEIKPRP, 0.101; with RRIRIRPPRLPRPRPRPSGRPRP, -0.427. With RRIRCRPPRLPRPRPRPVAAPRP the figure was 0.689.

RRIRKRPPRLPRPRPRPVPMPRP: the “shrunken log2 fold change” value came out at 0.355. With RRIRPRPPRLPRPRPRPIEEPRP the figure was -0.0376. For RRIRKRPPRLPRPRPRPVMMPRP, the “shrunken log2 fold change” value was determined as 0.155. Take RRIRYRPPRLPRPRPRPSVWPRP: the “shrunken log2 fold change” value was found to be 0.0896. With RRIRQRPPRLPRPRPRPVRTPRP the figure was 0.0701; with RRIRPRPPRLPRPRPRPFISPRP, -0.706; with RRIRCRPPRLPRPRPRPQKPPRP, 0.0368.

For RRIRERPPRLPRPRPRPWWFPRP, the “shrunken log2 fold change” value is 0.137. In the case of RRIRKRPPRLPRPRPRPWGFPRP, the “shrunken log2 fold change” value was 0.0651. Regarding RRIRHRPPRLPRPRPRPCRGPRP, the “shrunken log2 fold change” value was determined as 0.00172.

As to RRIRQRPPRLPRPRPRPMINPRP, the “shrunken log2 fold change” value is -0.0423. With RRIRGRPPRLPRPRPRPGDIPRP the figure was 0.143; with RRIRKRPPRLPRPRPRPCTRPRP, -0.103. In the case of RRIRARPPRLPRPRPRPQRMPRP, the “shrunken log2 fold change” value was determined as 0.0748. With RRIRPRPPRLPRPRPRPEEAPRP the figure was 0.0763; with RRIRHRPPRLPRPRPRPSSNPRP, -0.399. On to RRIRYRPPRLPRPRPRPYFEPRP, for which the “shrunken log2 fold change” value was -0.58. On to RRIRYRPPRLPRPRPRPEQQPRP, for which the “shrunken log2 fold change” value is -0.0122. In the case of RRIRTRPPRLPRPRPRPEHPPRP, the “shrunken log2 fold change” value was found to be 0.716. With RRIRKRPPRLPRPRPRPYLFPRP the figure was -0.0275; with RRIRTRPPRLPRPRPRPYLTPRP, -0.171. With RRIRGRPPRLPRPRPRPQKFPRP the figure was -0.0494. With RRIRPRPPRLPRPRPRPTIRPRP, the “shrunken log2 fold change” value amounted to 0.172. For RRIRLRPPRLPRPRPRPWYKPRP, the “shrunken log2 fold change” value was -0.0396. With RRIRRRPPRLPRPRPRPNCDPRP the figure was 0.186; with RRIRIRPPRLPRPRPRPWMWPRP, 0.0832. With RRIRERPPRLPRPRPRPAGDPRP the figure was 3.19; with RRIRFRPPRLPRPRPRPMQHPRP, 0.0148.

As for RRIRFRPPRLPRPRPRPLSRPRP, the “shrunken log2 fold change” value was -0.102. With RRIRFRPPRLPRPRPRPTVSPRP the figure was -0.00542. With RRIRQRPPRLPRPRPRPKAAPRP the figure was -0.0496; with RRIRFRPPRLPRPRPRPFKGPRP, -0.23; with RRIRGRPPRLPRPRPRPACWPRP, 1.08.

For the sequence RRIRCRPPRLPRPRPRPTTWPRP, the “shrunken log2 fold change” value was -0.125. Turning to RRIRTRPPRLPRPRPRPSTQPRP, the “shrunken log2 fold change” value is -0.0187. For the sequence RRIRERPPRLPRPRPRPELYPRP, the “shrunken log2 fold change” value was -0.0287. With RRIRGRPPRLPRPRPRPHHCPRP the figure was -0.118. With RRIRIRPPRLPRPRPRPTESPRP the figure was -0.433; with RRIRTRPPRLPRPRPRPVNWPRP, 0.0495; with RRIRVRPPRLPRPRPRPKPYPRP, 0.0131. With RRIRNRPPRLPRPRPRPNRAPRP the figure was 0.0272; with RRIRERPPRLPRPRPRPTPHPRP, 0.308; with RRIRNRPPRLPRPRPRPTACPRP, 0.0275. As for RRIRMRPPRLPRPRPRPQNGPRP, the “shrunken log2 fold change” value stood at 0.0258. For the sequence RRIRHRPPRLPRPRPRPLADPRP, the “shrunken log2 fold change” value worked out at 0.26. With RRIRSRPPRLPRPRPRPLYHPRP the figure was -0.599; with RRIRHRPPRLPRPRPRPMIQPRP, -0.0673. With RRIRLRPPRLPRPRPRPHAAPRP the figure was -0.343; with RRIRSRPPRLPRPRPRPQISPRP, -0.00331; with RRIRKRPPRLPRPRPRPAPMPRP, 0.769. With RRIRERPPRLPRPRPRPWLQPRP the figure was 0.0293.

Turning to RRIRNRPPRLPRPRPRPKIAPRP, the “shrunken log2 fold change” value amounted to 0.0241. With RRIRWRPPRLPRPRPRPRRWPRP the figure was 0.482; with RRIRGRPPRLPRPRPRPVWMPRP, -0.117. With RRIRPRPPRLPRPRPRPTTVPRP the figure was 0.0207; with RRIRWRPPRLPRPRPRPHWYPRP, 2.17; with RRIRPRPPRLPRPRPRPNAIPRP, -0.0755. With RRIRCRPPRLPRPRPRPWTMPRP the figure was 0.0153; with RRIRYRPPRLPRPRPRPHICPRP, -0.0358.

On to RRIRFRPPRLPRPRPRPTSDPRP, for which the “shrunken log2 fold change” value is -0.206. With RRIRQRPPRLPRPRPRPKASPRP the figure was -0.0573. Consider RRIRSRPPRLPRPRPRPCNWPRP, for which the “shrunken log2 fold change” value is -0.128. Turning to RRIRIRPPRLPRPRPRPRVPPRP, the “shrunken log2 fold change” value came to 1.5. With RRIRYRPPRLPRPRPRPFTPPRP the figure was -0.889. With RRIRIRPPRLPRPRPRPTRKPRP the figure was -0.101; with RRIRKRPPRLPRPRPRPGKHPRP, 0.258; with RRIRHRPPRLPRPRPRPTYSPRP, -0.489. In the case of RRIRFRPPRLPRPRPRPCIHPRP, the “shrunken log2 fold change” value is -0.0499. With RRIRERPPRLPRPRPRPIMDPRP the figure was -0.247; with RRIRMRPPRLPRPRPRPSEEPRP, 0.0287. With RRIRVRPPRLPRPRPRPVDHPRP the figure was -0.464. With RRIRWRPPRLPRPRPRPTYIPRP the figure was -0.428; with RRIRMRPPRLPRPRPRPKKCPRP, 0.959; with RRIRIRPPRLPRPRPRPHIHPRP, -0.811.
